In publication PMC5413351, “Structural basis of protein translocation by the Vps4-Vta1 AAA ATPase” (eLife, 2017):
Residue numbers refer to the chain shown, from its start.

Experiments:
[1] = ATPase assay (malachite green end-point); type: biochemical, S. cerevisiae; details: 1 mM ATP, 37°C, 5 min, pH 7.4, mean of all runs
Procedure: The rate of ATP hydrolysis was determined using an end-point method modified from Merrill and Hanson ([Merrill and Hanson, 2010]). Vps4 at the indicated subunit concentration was incubated with 1 mM ATP at 37°C in 20 mM HEPES/NaOH pH 7.4, 100 mM NaCl, 10 mM MgCl2, 1 mM DTT in a total volume of 10 µl. The hydrolysis reaction was stopped after 5 min by the addition of 100 µl of malachite green color reagent (14 mM ammonium molybdate, 1.3 M HCl, 1.5 mM malachite green) and 50 µl of 21% (w/v) citric acid. Absorbance at 650 nm was read using a Biotek Neo Synergy microplate reader and the amount of inorganic phosphate released by the reaction was determined using a sodium phosphate standard curve. Means and standard deviations reported in Figure 1D are from at least three independent experiments using different protein preparations with three or more technical replicates each.

[2] = biological target: T1, Vps4^101-437 (Saccharomyces cerevisiae, UniProt P52917, L151D); type: binding, S. cerevisiae; details: global fit of replicate titrations over [Vps4 monomer], uM, m1 = 1; L151D mutant; Std. Error 0.218; 95% CI (profile likelihood) 4.01 to 4.887; read-out: Kd (fit to normalized anisotropy data, best-fit value)
T1 construct: 6xHis (TEV-cleavable) (N, cleaved yes); made in house; host or cells: E. coli BL21(DE3)RIL
T1 sequence (P52917 101-437 L151D): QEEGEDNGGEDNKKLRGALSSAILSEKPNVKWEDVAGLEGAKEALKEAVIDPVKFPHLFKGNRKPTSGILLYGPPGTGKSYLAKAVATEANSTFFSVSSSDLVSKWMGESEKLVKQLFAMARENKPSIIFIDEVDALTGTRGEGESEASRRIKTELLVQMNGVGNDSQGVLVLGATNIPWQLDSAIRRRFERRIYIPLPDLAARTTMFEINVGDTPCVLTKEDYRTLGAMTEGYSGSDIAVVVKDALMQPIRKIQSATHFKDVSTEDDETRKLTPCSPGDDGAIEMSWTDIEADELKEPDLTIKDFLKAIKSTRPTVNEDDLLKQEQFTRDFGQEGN
Procedure: Fluorescence polarization assay for ESCRT-III peptide binding
When equilibrium was reached, parallel and perpendicular fluorescence intensities were measured on a Biotek Synergy Neo HTS microplate reader using an excitation wavelength of 485 nm and an emission wavelength of 528 nm.

B1: Vps4^81-437: Vps4 construct residues 81-437 (pET151-Vps4(81-437)) (protein, UniProt P52917 81-437, looked up, fragment)
chain: AAKKSPSAGSGSNGGNKKISQEEGEDNGGEDNKKLRGALSSAILSEKPNVKWEDVAGLEGAKEALKEAVILPVKFPHLFKGNRKPTSGILLYGPPGTGKSYLAKAVATEANSTFFSVSSSDLVSKWMGESEKLVKQLFAMARENKPSIIFIDEVDALTGTRGEGESEASRRIKTELLVQMNGVGNDSQGVLVLGATNIPWQLDSAIRRRFERRIYIPLPDLAARTTMFEINVGDTPCVLTKEDYRTLGAMTEGYSGSDIAVVVKDALMQPIRKIQSATHFKDVSTEDDETRKLTPCSPGDDGAIEMSWTDIEADELKEPDLTIKDFLKAIKSTRPTVNEDDLLKQEQFTRDFGQEGN
For B1, which “ATPase activity, average” value ([1]; 0.05 μM Vps4 subunits) is on record?
Its value is -6.194 ATP/min/Vps4 hexamer.

What about the “ATPase activity, average” value ([1]; 1 μM Vps4 subunits) of the same molecule?
Its value is 456.338 ATP/min/Vps4 hexamer.

B2: Vps4^101-437: yeast Vps4 construct (residues 101–437) spanning the AAA ATPase cassette (protein, UniProt P52917 101-437, looked up, fragment)
chain: QEEGEDNGGEDNKKLRGALSSAILSEKPNVKWEDVAGLEGAKEALKEAVILPVKFPHLFKGNRKPTSGILLYGPPGTGKSYLAKAVATEANSTFFSVSSSDLVSKWMGESEKLVKQLFAMARENKPSIIFIDEVDALTGTRGEGESEASRRIKTELLVQMNGVGNDSQGVLVLGATNIPWQLDSAIRRRFERRIYIPLPDLAARTTMFEINVGDTPCVLTKEDYRTLGAMTEGYSGSDIAVVVKDALMQPIRKIQSATHFKDVSTEDDETRKLTPCSPGDDGAIEMSWTDIEADELKEPDLTIKDFLKAIKSTRPTVNEDDLLKQEQFTRDFGQEGN
Which results are given for B2?
ATPase activity, average ([1]; 0.05 μM Vps4 subunits): -26.1936 ATP/min/Vps4 hexamer; ATPase activity, average ([1]; 1 μM Vps4 subunits): 418.838 ATP/min/Vps4 hexamer

B3: Vps4(101-437) L151D (protein)
chain: B2 chain with L51D
modifications: left off: 6xHis, N-terminal, cleaved
With B3 as the molecule, how does the Kd [2] read?
Its Kd is 4.43 µM.

B4: Vps4 full-length: yeast AAA ATPase Vps4, full-length (pET151-Vps4) (protein)
chain 1: MSTGDFLTKGIELVQKAIDLDTATQYEEAYTAYYNGLDYLMLALKYEKNPKSKDLIRAKFTEYLNRAEQLKKHLESEEANAAKKSPSAGSGSNGGNKKISQEEGEDNGGEDNKKLRGALSSAILSEKPNVKWEDVAGLEGAKEALKEAVILPVKFPHLFKGNRKPTSGILLYGPPGTGKSYLAKAVATEANSTFFSVSSSDLVSKWMGESEKLVKQLFAMARENKPSIIFIDEVDALTGTRGEGESEASRRIKTELLVQMNGVGNDSQGVLVLGATNIPWQLDSAIRRRFERRIYIPLPDLAARTTMFEINVGDTPCVLTKEDYRTLGAMTEGYSGSDIAVVVKDALMQPIRKIQSATHFKDVSTEDDETRKLTPCSPGDDGAIEMSWTDIEADELKEPDLTIKDFLKAIKSTRPTVNEDDLLKQEQFTRDFGQEGN
chain 2: MASNAARVVATAKDFDKVGLGIIGYYLQLYAVELILSEEDRSQEMTALATELLDTIEAFKKEIGGESEAEDSDKSLHVMNTLIHDQEKAKIYMLNFTMSLYNEKLKQLKDGPWDVMLKRSLWCCIDLFSCILHLWKENISETSTNSLQKRIKYCKIYLSKLAKGEIGSSDEKTLDYADFADDSEEIKDEDVDHQTSDLENNNNDKVEGLAPKDQTTSYEPVDEVPEFIDDADSVNEEEQTVDKNEDAITKDEQQVVKKEVDLTRPSAPSEPAAAEHKSYTKDELTKIMDRASKIEQIQKLAKYAISALNYEDLPTAKDELTKALDLLNSI
modifications: left off: 6xHis, N-terminal, cleaved | 6xHis, N-terminal, cleaved
With B4 as the molecule, how does the “ATPase activity, average” value ([1]; 0.05 μM Vps4 subunits) read?
Its value is 19.8582 ATP/min/Vps4 hexamer.

What about the “ATPase activity, average” value ([1]; 1 μM Vps4 subunits) of the same molecule?
The value was 701.731 ATP/min/Vps4 hexamer.
